Among the data in PMC2383916 are fold luciferase activity over reporter alone and fold luciferase activity over Gal4-Bmal1ΔHLH/PAS A alone values, retold here.

Read-outs that look alike come from different tables or passages of the source.

The target in experiment [1] is GAL4-PER2 (mouse) (UniProt O54943). In words: two-hybrid; mammalian two-hybrid in HER911 cells: Gal4 DBD fusion and VP16 fusion co-transfected with the GAL4-based luciferase reporter pFR-luc and pCMV-lacZ; luciferase normalised to beta-galactosidase; reporter alone set to 1.
Experiment [2] deals with GAL4-CRY2 (mouse) (UniProt Q9R194). Described as above.
For experiment [3], the target named is GAL4-CRY1 (mouse) (UniProt P97784). The experiment is described as above.
In experiment [4] the target is GAL4-PER2 (mouse) (UniProt O54943). Put plainly: two-hybrid; mammalian two-hybrid in cos-7 cells: Gal4 DBD fusion and VP16 fusion co-transfected with pFR-luc and pCMV-lacZ; reporter alone set to 1.
The target in experiment [5] is GAL4-CRY2 (mouse) (UniProt Q9R194). Described as above.
For experiment [6], the target named is GAL4-CRY1 (mouse) (UniProt P97784). Described as above.
Experiment [7] addresses GAL4-BMAL1 (mouse). Put plainly: two-hybrid; mammalian two-hybrid in HER911 cells: Gal4 DBD fusion and VP16 fusion co-transfected with the GAL4-based luciferase reporter pFR-luc and pCMV-lacZ; luciferase normalised to beta-galactosidase; reporter alone set to 1. For orientation: A reporter such as luciferase makes a cellular process visible.
The target of a further experiment is GAL4-CLOCK (mouse) (UniProt O08785). The description is as above.
For experiment [8], the target named is GAL4-BMAL1ΔPAS B/C-term (mouse). Described as above.
In experiment [9] the target is GAL4-BMAL1ΔC-term (mouse). Described as above.
For experiment [10], the target named is GAL4-BMAL1 (mouse). In words: two-hybrid; mammalian two-hybrid in cos-7 cells: Gal4 DBD fusion and VP16 fusion co-transfected with pFR-luc and pCMV-lacZ; reporter alone set to 1.
For experiment [11], the target named is GAL4-BMAL1 (mouse). In words: two-hybrid; mammalian two-hybrid in HER911 cells: Gal4 DBD fusion and VP16 fusion co-transfected with the GAL4-based luciferase reporter pFR-luc and pCMV-lacZ; luciferase normalised to beta-galactosidase; reporter alone set to 1. The source holds these as a separate data set.
For experiment [12], the target named is GAL4-BMAL1ΔHLH/PAS A (mouse). Described as above.
The target of experiment [13] is GAL4-BMAL1ΔC-term (mouse). Described as above. The source holds these as a separate data set.

UniProt O54943, sequence (O54943 whole entry, the tested form may be a part): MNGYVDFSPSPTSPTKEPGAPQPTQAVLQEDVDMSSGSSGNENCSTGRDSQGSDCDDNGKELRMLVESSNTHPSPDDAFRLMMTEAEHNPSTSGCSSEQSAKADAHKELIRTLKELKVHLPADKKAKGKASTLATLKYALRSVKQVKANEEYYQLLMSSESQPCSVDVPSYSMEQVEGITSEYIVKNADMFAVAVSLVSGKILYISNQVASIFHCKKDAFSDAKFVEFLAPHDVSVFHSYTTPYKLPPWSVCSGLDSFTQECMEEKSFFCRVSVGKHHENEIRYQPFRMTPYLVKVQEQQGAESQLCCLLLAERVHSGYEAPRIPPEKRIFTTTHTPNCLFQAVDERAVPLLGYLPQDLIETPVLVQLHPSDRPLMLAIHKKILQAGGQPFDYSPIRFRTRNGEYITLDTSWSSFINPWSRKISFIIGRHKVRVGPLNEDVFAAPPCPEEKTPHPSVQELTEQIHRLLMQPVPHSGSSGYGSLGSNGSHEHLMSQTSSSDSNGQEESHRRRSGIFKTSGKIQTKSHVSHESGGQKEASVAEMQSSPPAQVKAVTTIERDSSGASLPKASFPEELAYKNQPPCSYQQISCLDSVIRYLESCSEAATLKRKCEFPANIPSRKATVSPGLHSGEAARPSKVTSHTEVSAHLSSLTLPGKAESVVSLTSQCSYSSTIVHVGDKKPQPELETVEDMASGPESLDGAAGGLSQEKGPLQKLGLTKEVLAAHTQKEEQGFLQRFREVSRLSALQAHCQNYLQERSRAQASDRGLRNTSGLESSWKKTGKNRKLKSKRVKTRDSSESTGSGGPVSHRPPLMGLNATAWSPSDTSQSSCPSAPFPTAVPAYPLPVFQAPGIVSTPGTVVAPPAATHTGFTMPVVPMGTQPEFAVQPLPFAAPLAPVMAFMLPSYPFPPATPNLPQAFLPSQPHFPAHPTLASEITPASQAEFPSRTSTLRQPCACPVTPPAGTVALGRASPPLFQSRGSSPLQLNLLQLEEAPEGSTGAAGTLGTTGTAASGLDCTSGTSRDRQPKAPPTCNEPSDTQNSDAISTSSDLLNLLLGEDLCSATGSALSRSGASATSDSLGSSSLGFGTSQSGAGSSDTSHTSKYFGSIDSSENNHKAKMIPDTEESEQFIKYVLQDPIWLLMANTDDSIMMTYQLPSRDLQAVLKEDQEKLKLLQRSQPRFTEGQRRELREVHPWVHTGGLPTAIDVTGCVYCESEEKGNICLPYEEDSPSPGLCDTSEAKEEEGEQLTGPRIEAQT
UniProt O08785, sequence (O08785 whole entry, the tested form may be a part): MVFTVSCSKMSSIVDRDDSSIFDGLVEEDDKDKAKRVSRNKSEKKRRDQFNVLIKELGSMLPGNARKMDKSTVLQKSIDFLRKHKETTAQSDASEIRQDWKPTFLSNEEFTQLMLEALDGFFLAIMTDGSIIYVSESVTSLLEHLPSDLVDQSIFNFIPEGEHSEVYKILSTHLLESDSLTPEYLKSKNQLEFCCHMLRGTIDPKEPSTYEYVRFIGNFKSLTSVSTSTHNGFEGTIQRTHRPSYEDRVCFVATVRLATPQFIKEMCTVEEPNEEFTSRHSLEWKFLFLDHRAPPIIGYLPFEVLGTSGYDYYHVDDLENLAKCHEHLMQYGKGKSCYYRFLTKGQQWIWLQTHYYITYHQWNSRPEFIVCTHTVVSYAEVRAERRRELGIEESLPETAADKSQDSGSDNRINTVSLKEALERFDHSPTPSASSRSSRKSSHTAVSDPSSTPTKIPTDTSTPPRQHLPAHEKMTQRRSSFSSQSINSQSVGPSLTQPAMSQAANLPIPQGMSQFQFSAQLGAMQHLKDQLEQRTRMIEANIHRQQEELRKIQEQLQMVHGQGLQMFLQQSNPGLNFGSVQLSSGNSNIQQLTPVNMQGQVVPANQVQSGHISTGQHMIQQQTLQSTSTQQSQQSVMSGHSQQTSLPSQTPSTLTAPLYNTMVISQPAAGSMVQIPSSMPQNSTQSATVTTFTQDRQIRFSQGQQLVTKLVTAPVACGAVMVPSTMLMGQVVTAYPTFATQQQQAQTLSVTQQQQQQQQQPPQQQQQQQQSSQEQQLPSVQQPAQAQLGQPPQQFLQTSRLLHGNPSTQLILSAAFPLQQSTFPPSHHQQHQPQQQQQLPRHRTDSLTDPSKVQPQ

For BMAL1-VP16 (natural protein), the fold luciferase activity over reporter alone with GAL4-PER2 (mouse) [1] was 110 fold; with GAL4-CRY2 (mouse) [2] it was 10 fold; with GAL4-CRY1 (mouse) [3] it was 70 fold; in the experiment with GAL4-PER2 (mouse) [4] it was 2900 fold; in the experiment with GAL4-CRY2 (mouse) [5], 125 fold; with GAL4-CRY1 (mouse) [6], 450 fold.

On to “CLOCK-VP16 (from UniProt O08785 1-855) (natural protein)”, for which the fold luciferase activity over reporter alone in the experiment with GAL4-PER2 (mouse) [1] turned out to be 110 fold; with GAL4-PER2 (mouse) [4], 55 fold.

“PER2-VP16 (from UniProt O54943 1-1257) (natural protein)”: the fold luciferase activity over reporter alone with GAL4-BMAL1 (mouse) [7] amounted to 1000 fold; with GAL4-CLOCK (mouse) it was 75 fold; in experiment [8], 5 fold; in experiment [9] it was 150 fold; with GAL4-BMAL1 (mouse) [10] it was 200 fold.

B1: CRY2-VP16 (natural protein)
chain: MAAAAVVAATVPAQSMGADGASSVHWFRKGLRLHDNPALLAAVRGARCVRCVYILDPWFAASSSVGINRWRFLLQSLEDLDTSLRKLNSRLFVVRGQPADVFPRLFKEWGVTRLTFEYDSEPFGKERDAAIMKMAKEAGVEVVTENSHTLYDLDRIIELNGQKPPLTYKRFQALISRMELPKKPAVAVSSQQMESCRAEIQENHDDTYGVPSLEELGFPTEGLGPAVWQGGETEALARLDKHLERKAWVANYERPRMNANSLLASPTGLSPYLRFGCLSCRLFYYRLWDLYKKVKRNSTPPLSLFGQLLWREFFYTAATNNPRFDRMEGNPICIQIPWDRNPEALAKWAEGKTGFPWIDAIMTQLRQEGWIHHLARHAVACFLTRGDLWVSWESGVRVFDELLLDADFSVNAGSWMWLSCSAFFQQFFHCYCPVGFGRRTDPSGDYIRRYLPKLKGFPSRYIYEPWNAPESVQKAAKCIIGVDYPRPIVNHAETSRLNIERMKQIYQQLSRYRGLCLLASVPSCVEDLSHPVAEPGSSQAGSISNTGPRALSSGPASPKRKLEAAEEPPGEELTKRARVTEMPTQEPASKDS
Consider B1, for which the fold luciferase activity over reporter alone with GAL4-BMAL1 (mouse) [10] turned out to be 70 fold; in the experiment with GAL4-BMAL1 (mouse) [11] it was 950 fold. Besides, the fold luciferase activity over Gal4-Bmal1ΔHLH/PAS A alone in [12] turned out to be 3 fold.

B2: CRY1-VP16 (natural protein)
chain: MGVNAVHWFRKGLRLHDNPALKECIQGADTIRCVYILDPWFAGSSNVGINRWRFLLQCLEDLDANLRKLNSRLFVIRGQPADVFPRLFKEWNITKLSIEYDSEPFGKERDAAIKKLATEAGVEVIVRISHTLYDLDKIIELNGGQPPLTYKRFQTLVSKMEPLEMPADTITSDVIGKCMTPLSDDHDEKYGVPSLEELGFDTDGLSSAVWPGGETEALTRLERHLERKAWVANFERPRMNANSLLASPTGLSPYLRFGCLSCRLFYFKLTDLYKKVKKNSSPPLSLYGQLLWREFFYTAATNNPRFDKMEGNPICVQIPWDKNPEALAKWAEGRTGFPWIDAIMTQLRQEGWIHHLARHAVACFLTRGDLWISWEEGMKVFEELLLDADWSINAGSWMWLSCSSFFQQFFHCYCPVGFGRRTDPNGDYIRRYLPVLRGFPAKYIYDPWNAPEGIQKVAKCLIGVNYPKPMVNHAEASRLNIERMKQIYQQLSRYRGLGLLASVPSNSNGNGGLMGYAPGENVPSCSSSGNGGLMGYAPGENVPSCSGGNCSQGSGILHYAHGDSQQTHSLKQGRSSAGTGLSSGKRPSQEEDAQSVGPKVQRQSSN
As for B2, the fold luciferase activity over reporter alone came out at 110 fold with GAL4-BMAL1 (mouse) [10], 750 fold with GAL4-BMAL1 (mouse) [11] and 50 fold in experiment [13].
